{"source": "patent US9920295B2", "about": "“Bioreactor for isolation of rare cells and methods of use” (The Trustees of the University of Pennsylvania, priority 2012, dated 2018)", "molecules": {"B1": {"name": "G-CSF: human recombinant granulocyte colony-stimulating factor (protein, UniProt P09919 31-207, looked up)", "Granulocyte …": "TPLGPASSLPQSFLLKCLEQVRKIQGDGAALQEKLVSECATYKLCHPEELVLLGHSLGIPWAPLSSCPSQALQLAGCLSQLHSGLFLYQGLLQALEGISPELGPTLDTLQLDVADFATTIWQQMEELGMAPALQPTQGAMPAFASAFQRRAGGVLVASHLQSFLEVSYRVLRHLAQP"}}, "system": "CD34+-derived cells", "assay": "Apoptosis by cleaved caspase-3 intracellular flow cytometry and Annexin-V", "assay_type": "cell-based, human", "settings": "G-CSF 100 ng/ml; CH-223191 500 nM (4n fraction)", "procedure": "Cells were fixed with 4% paraformaldehyde in PBS for 10 min, washed with PBS and resuspended in 0.1% saponin in HBSS (staining medium). The samples were then stained with antibodies against cytoplasmic antigens, including NMM-IIA (Sigma), NMM-IIB, phospho-NMM-IIA and caspase-3 (all from Cell Signaling Technology) for 30 min at room temperature. In some cases, cells were concurrently stained with PE anti-CD34 or anti-human CD38 for subpopulation analysis. Cells were then washed and stained with anti-rabbit or mouse secondary antibodies conjugated with Alexa 647 (Invitrogen) for 30 min, followed by analysis on FACSCalibur.", "data": [{"molecule": "B1", "values": [{"measurement": "viability of untreated CD34+ and CD34− cells", "value": "improves the viability"}]}]}
